Measured values reported in publication PMC2833306.

Target: integrins on HS deficient CHO-2241 cells (Chinese hamster (endogenous in CHO-2241))
Assay: flow cytometry on cells; CHO-2241 cells (HS deficient) in PBS 1 mM CaCl2, 1 h at 4°C with 15 ug/mL particles; bound particles detected with rabbit serum against the Ad3 penton base and FITC secondary antibody

Substance: MutAQAS dodecahedron (HAd3 penton base, KQKR to AQAS) (from UniProt Q2Y0H9 1-544) (complex)
- inhibition of binding compared to Bs-Dd: 80%
